From paper PMC9584953
Changes are numbered by the printed parent chain.

Assays:
Experiment in all cases: EMSA
Details in all cases: EMSA: 50 mM Tris-HCl pH 7.5, 50 mM KCl, 5 mM CaCl2, 5% glycerol, 0.0025% NP-40, 0.8 ug poly(dI-dC), room temperature 30 min
[1] = system: T1, OmpR A136D A136D (Salmonella (strain not given in material)), ORF:d8521a76
T1 sequence: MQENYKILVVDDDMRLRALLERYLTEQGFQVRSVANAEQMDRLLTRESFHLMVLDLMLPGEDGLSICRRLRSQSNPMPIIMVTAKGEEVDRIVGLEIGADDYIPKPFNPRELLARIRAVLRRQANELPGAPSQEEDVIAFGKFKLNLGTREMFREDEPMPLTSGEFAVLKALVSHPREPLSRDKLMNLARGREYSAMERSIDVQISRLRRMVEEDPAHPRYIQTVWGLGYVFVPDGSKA

[2] = system: T2, OmpR I138D I138D (Salmonella (strain not given in material)), ORF:d8521a76
T2 sequence: T1 sequence with D136A, I138D

[3] = system: T3, OmpR Y230D Y230D (Salmonella (strain not given in material)), ORF:d8521a76
T3 sequence: T1 sequence with D136A, Y230D

[4] = system: T4, OmpR R182D R182D (Salmonella (strain not given in material)), ORF:d8521a76
T4 sequence: T1 sequence with D136A, R182D

[5] = system: T5, OmpR D55A D55A (Salmonella (strain not given in material)), ORF:d8521a76
T5 sequence: T1 sequence with D55A, D136A

CATCTTTCCATTCAAACTAACGTTTCGCTACCGTGAAAGTGCTACAAAGATAAAGATTTGGTTTCAAAAGGAAAT (double strand) [PompF (F2 and F3 OmpR sites)]
binding [1]: binds | binding [2]: binds | binding [3]: binds | binding [4]: binds | binding [5]: binds more weakly
